Biological target: the molecule itself
Assay: cryo-EM structure

B1: Arf1-GTP (natural protein)
chain: not shown
B1 was tested. Which “stoichiometry N” value did it give?
Its value is 3.
